Reference: patent publication US20250026813A1 (published 2025)
“And” between values parts separate entries of the source, which are not always exact repeats. Equal values may be shown once.

Tests used:
[1] = molecular target: RBD domain of the SARS-CoV-2 spike protein (Acro Biosystems SPD-C52H3), His tag (SARS-CoV-2, UniProt P0DTC2 319-537)
[2] = molecular target: SARS-CoV-2 spike protein receptor binding domain (isolated RBD) (SARS-CoV-2, UniProt P0DTC2 319-541); assay: SPR (Biacore 8K), IgG1 captured via anti-hFc, RBD as analyte, 1:1 fit
[3] = molecular target: SARS-CoV-2 spike protein receptor binding domain (RBD) (SARS-CoV-2, UniProt P0DTC2 319-541); assay: HT-SPR (Carterra LSA); IgG captured by anti-human Fc, RBD as analyte, 1:1 fit
[4] = molecular target: SARS-CoV-2 spike protein on live virus SARS-CoV-2 Victoria/01/2020 (SARS-CoV-2, UniProt P0DTC2 14-1273); assay: cell-based or functional assay
[5] = molecular target: T1, Receptor binding domain (Neil King, University of Washington) (SARS-CoV-2, UniProt P0DTC2 328-531)
[6] = molecular target: SARS-CoV-2 spike protein trimer, wild type (FIG. 2A sequence) with C-terminal trimerisation domain (SARS-CoV-2, UniProt P0DTC2 14-1213)
[7] = molecular target: SARS-CoV-2 S2 spike domain (Sino Biological) (SARS-CoV-2, UniProt P0DTC2 686-1213)
[8] = molecular target: T1, Receptor binding domain (Neil King, …); assay: SPR (Biacore 8K), antibody captured by anti-hFc, RBD as analyte

B1: IMPI-002 (antibody, V domains shown)
VH: EVQLVESGGGLIQPGGSLRLSCAASGVTVSSNYMSWVRQAPGKGLEGVSVIYSGGSTYYADSVKGRFTISRDNSKNTLYLQMNSLRAEDTAVYYCARDTVVYGMDVWGQGTTVTVSS
VL: DIQLTQSPSFLSASVGDRVTITCWASQGISSYLAWYQQKPGKAPKLLIYAASTLQSGVPSRFSGSGSGTEFTLTISSLQPEDFATYYCQQLNSYPLTFGGGTKVEIK
In the case of B1, the “HTRF deltaF” value [1] is reported as 172 deltaF.

B2: IMPI-052 (antibody, V domains shown)
VH: EVQLVESGGGLIQPGGSLRLSCAASGVTVSSNYMNWVRQAPGKGLEGVSVIYSGGTTYYADSVKGRFTISRDNSKNTLYLQMNSLRAEDTAVYYCARDTVVYGMDVWGQGTTVTVSS
VL: DIQLTQSPSFLSASVGDRVTITCWASQGISSYLAWYQQKPGKAPKLLIYTASTLQSGVPSRFSGSGSGTEFTLTISSLQPEDFATYYCQQLNSYPLTFGGGTKVEIK
Binder B2 has a Kd [2] of 13.2 nM.

B3: IMPI-052 (antibody, V domains shown)
VH: EVQLVESGGGLIQPGGSLRLSCAASGVTVSSNYMNWVRQAPGKGLEGVSVIYSGGTTYYADSVKGRFTISRDNSKNTLYLQMNSLRAEDTAVYYCARDTVVYGMDVWGQGTTVTVSS
VL: DIQLTQSPSFLSASVGDRVTITCWASQGISSYLAWYQQKPGKAPKLLIYTASTLQSGVPSRFSGSGSGTEFTLTISSLQPEDFATYYCQQLNSYPLTFGGGTKVEIK
B3 was tested, and the “HTRF deltaF” value [1] was 229 deltaF.

B4: IMPI-052 (antibody, V domains shown)
VH: EVQLVESGGGLIQPGGSLRLSCAASGVTVSSNYMNWVRQAPGKGLEGVSVIYSGGTTYYADSVKGRFTISRDNSKNTLYLQMNSLRAEDTAVYYCARDTVVYGMDVWGQGTTVTVSS
VL: DIQLTQSPSFLSASVGDRVTITCWASQGISSYLAWYQQKPGKAPKLLIYTASTLQSGVPSRFSGSGSGTEFTLTISSLQPEDFATYYCQQLNSYPLTFGGGTKVEIK
B4 showed a Kd [3] of 24.1 nM.

B5: IMPI-004 (antibody, V domains shown)
VH: QVQLVESGGGVVQPGRSLRLSCAASGFTFSSYGMHWVRQAPGKGLEWVAVIWYDGGNKYYADSVKGRFTISRDNSKNTLYLQMNSLRAEDTAVYYCARVNVLMGYGMDVWGQGTTVTVSS
VL: EIVLTQSPGTLSLSPGDKATLSCRASQSIISSFLAWYQQKPGQAPRLLIYGASSRATGIPDRFSGSGSGTDFTLTISRLEPEDFAVYYCQQYGSSLTFGGGTKVEIK
In the case of B5, the “IC50, live virus foci (plaque) reduction neutralisation assay on Vero cells” value [4] is reported as 13 ng/ml and 86 pM.

B6: IMPI-059 (antibody, V domains shown)
VH: EVQLVESGGGLIQPGGSLRLSCAASGFTVSSIYMSWVRQAPGKGLEWVSIIYSRGSTDYADSVKGRFTISRDISKNTLYLQMNSLRAEDTAVYYCARDGTMVRGVHAFDIWGQGTMVTVSS
VL: DIQMTQSPPSLSASIGDRVTITCQASQDISNYLNWYQQKPGKAPKLLIYDASNLETGVPSRFSGSGSGTDFTLTISNLQPEDIVTYYCQQYDNLPSSFGQGTKLEIK
B6 was tested, and the Kd [5] was < 1 nM and the “IC50, live virus foci (plaque) reduction neutralisation assay on Vero cells” value [4] was 0.026 nM.

B7: IMPI-063 (antibody, V domains shown)
VH: EVQLVESGGGVVRPGGSLRLSCAASGFTFDDYGMSWVRQAPGKGLEWVSGIYWNGGSTGYADSVKGRFTISRDNAKNSLYLQMNSLRAEDMALYYCARGVGATDYWGQGTLVTVSS
VL: EIVLTQSPGTLSLSSGERATLACRASESVRGSFLAWYQQKPGQAPRLLIYGASRRATGIPDRFSGSGSGTDFTLTISRLEPEDFAVYYCQQYGNSPMCSFGQGTKLEIK
With B7 the Kd [6] was 2.29 nM, the koff [6] was 0.000939 s⁻¹ and the kon [6] was 411000 M⁻¹ s⁻¹. The Kd [7] was 0.845 nM, the koff [7] was 7.77 s⁻¹ and the kon [7] was 9.19e+09 M⁻¹ s⁻¹.

B8: IMPI-063 (antibody, V domains shown)
VH: EVQLVESGGGVVRPGGSLRLSCAASGFTFDDYGMSWVRQAPGKGLEWVSGIYWNGGSTGYADSVKGRFTISRDNAKNSLYLQMNSLRAEDMALYYCARGVGATDYWGQGTLVTVSS
VL: EIVLTQSPGTLSLSSGERATLACRASESVRGSFLAWYQQKPGQAPRLLIYGASRRATGIPDRFSGSGSGTDFTLTISRLEPEDFAVYYCQQYGNSPMCSFGQGTKLEIK
B8: no binding (tested: up to 100 nM analyte) [8].

B9: IMPI-013 (antibody, V domains shown)
VH: EVQLVESGGGLVQPGRSLRLSCAASGFTFDDYAMHWVRQTPGKGLEWVSGISWNSGSIGYADSVKGRFTISRDNAKNSLYLQMNSLRAEDTALYYCTKDLGLGIGFYYGLDVWGQGTTVTVSS
VL: AIQMTQSPSSLSTSVGDRVTITCRASQGIRNDLGWYQLKPGKAPKLLIYDASTLQSGVPSRFSGSGSGTDFTLTISSLEPEDLATYYCLHHYTYPWTFGHGTKVELK
With B9 the Kd [6] was 0.67 nM and the Kd [7] was 0.126 nM.

B10: IMPI-013 (antibody, V domains shown)
VH: EVQLVESGGGLVQPGRSLRLSCAASGFTFDDYAMHWVRQTPGKGLEWVSGISWNSGSIGYADSVKGRFTISRDNAKNSLYLQMNSLRAEDTALYYCTKDLGLGIGFYYGLDVWGQGTTVTVSS
VL: AIQMTQSPSSLSTSVGDRVTITCRASQGIRNDLGWYQLKPGKAPKLLIYDASTLQSGVPSRFSGSGSGTDFTLTISSLEPEDLATYYCLHHYTYPWTFGHGTKVELK
notes: also called IMP-013
B10: no binding (tested: up to 100 nM analyte) [8].

B11: IMPI-055 (antibody, V domains shown)
VH: QVQLVQSGAEVKKPGASVKVSCKASGYTFTSYDINWVRQATGQGLEWMGWMNPNSGNTGYAQKFQGRVTMTRDTSINTAYMELSSLRSEDTAVYFCARGGRYCSDVTCYSGEPFDYWGQGTLVTVSS
VL: EIMLTQSPDFQSVTPKEKVTITCRASQSIGSSLHWYQQKPDQSPKLLIKFASQSISGVPSRFSGSGSGTDFTLTINSLEAEDAAAYYCHQSSSLPHTFGPGTKVEIK
B11 was tested, and the Kd [5] was < 1 nM.
